Measured values from patent publication US20220290200A1, “GENETICALLY MODIFIED HOST CELLS PRODUCING GLYCOSYLATED CANNABINOIDS” (OCTARINE BIO IVS, priority 2019, published 2022).

Tests used:
[1] = In vitro glycosyl transferase performance, purified enzymes, % conversion of cannabinoids to cannabinoid glycosides; format: biochemical
Experimental: For in vitro studies of glycosyl transferase performance in glycosylating cannabinoids, purified Glycosyl transferases were prepared as follows:
5 mL of 2× concentrated LB medium+Ampicillin (50 μg/m L) was inoculated with E. coli XJb (DE3) strains expressing a glycosyl transferase of interest and incubated overnight at 30° C. with shaking. The following day, cell cultures were transferred into 500 mL of 2× concentrated LB medium+Ampicillin (50 μg/mL) and incubated overnight at 30° C. with shaking. The following day, the cell cultures were transferred to 1 L of 2× concentrated LB medium+Ampicillin (50 μg/mL)+3 mM arabinose+0.1 mM IPTG. Cells were incubated for 24 h at 20° C. with shaking. The following day, the cells were collected by centrifugation at 46500×g for 10 mins at 4° C. Cells were resuspended in 20 mL ice-cold GT buffer (50 mM Tris-HCl pH7.4+1 mM phenylmethanesulfonyl fluoride+1 cOmplete™, mini, EDTA-free Protease Inhibitor Cocktail tablet (Roche)). The resuspended material was transferred to a 50 mL falcon tube and kept at −80° C. for at least 15 mins. Falcon tubes were then thawed at room temperature, as the tubes were thawing the following reagents were added; 2.6 mM MgCl2, 1 mM CaCl2, 250 μL of a 1.4 mg/ml DNase solution (Sigma) dissolved in MilliQ water. Tubes were gently inverted to mix then were incubated for 5 mins at 37° C. Binding buffer was then added to the tubes (50 mM Tris-HCl pH7.4, 10 mM imidazole, 500 mM NaCl. 11.25 mL MilliQ water) and the pH adjusted to 7.4 with HCl. The mix was centrifuged at 15550×g for 15 mins at 4° C., the supernatant transferred to a fresh 50 mL falcon tubes and centrifuged again to remove any remaining cellular debris at 48400×g for 20 minutes at 4° C. While the enzyme prep was centrifuging, 3 mL of HIS-Select (available from Sigma P6611) column material was added to a fresh 50 mL tube and washed by adding MilliQ water up to 50 mL, centrifuging at 2000×g for 2 mins and discarding the supernatant. This washing step was repeated. Finally, MilliQ water was added to the HIS-Select material to an approximate 50% volume. Collected supernatant from the centrifuged enzyme preparation was transferred to the tube containing the HIS-Select material through a Miracloth (available from Merck Millipore), and then incubated at 4° C. with gently shaking by inversion for 2 h. After 2 h the mix was centrifuged at 2000×g for 4 minutes at 4° C. and the supernatant discarded. The remaining HIS-Select material was washed twice with 1× binding buffer (50 mM Tris-HCl, 0.5M NaCl, 10 mM Imidazole, pH 7.4) with centrifugation at 2000×g for 4 minutes at 4° C. The HIS-Select material was resuspended in 5 mL 1× binding buffer and transferred to a Poly-Prep®Chromatography Column (available from BioRad, 7311550). The HIS-Select material was kept at 4° C. and washed twice with 1× binding buffer by filling up the column and allowing it to drip through. Finally, purified Glycosyl transferases were eluted from the HIS-Select material by adding 7.5 mL of elution buffer (50 mM Tris-HCl, 500 mM Imidazole, pH7.4) and collecting the flow through. Enzymes were used immediately in in vitro enzyme assays or stored at −20° C. in 50% glycerol until needed.
In vitro conversion of various cannabinoids to cannabinoid glycosides was carried out according to table 21. Alkaline phosphatase was provided by New England Biolabs (M0371S). Cannabinoids were dissolved in methanol. The UDP-sugar (e.g. UDP-glucose) was provided by a commercial supplier (e.g. Sigma) or produced by in vitro enzymatic conversion from a commercially available UDP-sugar as shown in Example 21.
The reaction mixture was scaled up or down as required. The reaction mixture was incubated without shaking at 30° C. for 24 hours. Extraction and analysis were performed as described above for this example. […]

[2] = In vitro conversion of CBD with combined glycosyl transferases (sugar-sugar linkages); format: biochemical
Excerpt: The glycosyl transferases described herein can broadly be grouped into either glycosyl transferases active on the cannabinoid aglycones or glycosyl transferases active on cannabinoid glycosides. The latter group, instead of attaching a sugar moiety onto a free hydroxy group on the cannabinoid molecule, attaches a sugar moiety onto the sugar group of the cannabinoid glycoside. In Example 13 a range of glycosyl transferases were discovered that were active only on cannabinoid aglycones (e.g. PL-159(Pt88G_GA) (SEQ ID NO: 147, 148)) as well a range of glycosyl transferases which were active on both cannabinoid aglycones and cannabinoid glycosides. […] Two of these enzymes (PL-55(Sr76G1_GA) (SEQ ID NO: 123, 124) and PL-32(OsEUGT11_GA) (SEQ ID NO: 115, 116)) are described in prior art and are well known to catalyze a range of sugar on sugar reactions and were recently described as being able to perform sugar on sugar reactions on cannabinoid glycosides. […] In vitro assays were performed and analyzed as described previously. […] By comparing the LC-MS/QTOF retention time, measured mass and fragmentation pattern as well as the c Log P it could be elucidated that Sr76G1, OsEUGT11 and Si94D were catalysing sugar on sugar reactions with different linkages. […]

[3] = In vivo bioconversion of cannabinoid substrate to glycoside in E. coli expressing glycosyl transferases; format: cell-based
Experimental: The Sr76G1 expression plasmid (PL-55(Sr76G1_GA (SEQ ID NO:123,124)) was also included (resulting in E. coli strain EC-55) to test whether the absence of activity observed in vitro was also observed in vivo. Strains were subsequently incubated overnight in 5 mL of LB media supplemented with ampicillin in 10 mL pre-culture tubes at 37° C. Subsequently, cells were inoculated to a starting OD600 of 0.1 in 500 μL of LB media supplemented with ampicillin in a 96 deep-well plate and incubated at 30° C. for 6 hours. A cannabinoid substrate was then dissolved in ethanol and added to the culture media along with a suitable inducing agent (IPTG) in the following final concentrations:
Cannabinoid substrate: 250 μM
Cells were cultivated with the added ethanol, cannabinoid substrate and IPTG for a further 66 hours. Cannabinoid glycosides were extracted and analyzed by HPLC analysis as described above. The decrease in cannabinoid concentration and accumulation of cannabinoid glycosides were quantified and percent conversion calculated for each glycoside. As shown in table 51 below E. coli strains expressing glycosyl transferases could convert a range of cannabinoids into their corresponding glycosides.

B1: PL-159(Pt88G_GA) (protein)
chain: MEDTIVLYPSPGRGHLFSMVELGKQILEHHPSISITIIISAMPTESISIDDPYFSTLCNTNPSITLIHLPQVSLPPNTSFSPLDFVASFFELPELNNTNLHQTLLNLSKSSNIKAFIIDFFCSAAFEFVSSRHNIPIYFFYTTCASGLSMFLHLPILDKIITKSLKDLDIIIDLPGIPKIPSKELPPAISDRSHRVYQYLVDTAKLMIKSAGLIINTFELLERKALQAIQEGKCGAPDEPVPPLFCVGPLLTTSESKSEHECLTWLDSQPTRSVLFLCFGSMGVFNSRQLRETAIGLEKSGVRFLWVVRPPLADSQTQAGRSSTPNEPCLDLLLPEGFLERTKDRGFLVNSWAPQVEILNHGSVGGFVTHCGWNSVLEALCAGVPMVAWPLYAEQRMNRIFLVEEMKVALAFREAGDDHFVNAAELEERVIELMNSKKGEAVRERVLKLREDAVVAKSDGGSSCIAMAKLVDCFKKG
- % conversion of CBD to OB1 (CBD-1′-O-β-D-glucoside) ([1]; glycosyl transferase in vitro, Table 24): 97.4%
- % conversion of CBD to OB13 (CBD-1′-O-α-L- rhamnoside) ([1]; glycosyl transferase in vitro, Table 25): 2.0%
- % conversion of CBD to OB9 (CBD-1′-O-β-D-xyloside) ([1]; glycosyl transferase in vitro, Table 26): 12.4%
- % conversion of CBDV to OB24 (CBDV-1′-O-β-D-glucoside) ([1]; glycosyl transferase in vitro, Table 33): 89.2%
- % conversion of CBDA to OB31 (CBDA-1′-O-β-D-glucoside) ([1]; glycosyl transferase in vitro, Table 37): 12.0%
- % conversion, CBG to OB32 (CBG-1′-O-β-D-glucoside) ([1]; substrate CBG, product OB32, glycosyl transferase in vitro): 51.9%
- amount of CBD converted to OB1 (CBD-1′-O-β-D-glucoside) expressed as a percentage ([2]; substrate CBD, in vitro): 97.5%

B2: Cs73Y: glycosyl transferase, SEQ ID NO: 157 (207 for the yeast codon-optimized gene) (protein)
chain: MGSEGRQLHIFMFPFMAHGHMIPIVDMAKLFASRGIKITIVTTPLNSISISKSLHNCSPNSLIQLLILKFPAAEAGLPDGCENADSIPSMDLLPKFFEAVSLLQPPFEEALHNNRPDCLISDMFFPWTNDVADRVGIPRLIFHGTSCFSLCSSEFMRLHKPYQHVSSDTEPFTIPYLPGDIKLTKMKLPIFVRENSENEFSKFITKVKESESFCYGVVVNSFYELEAEYVDCYKDVLGRKTWTIGPLSLTNTKTQEITLRGRESAIDEHECLKWLDSQKPNSVVYVCFGSLAKFNSAQLKEIAIGLEASGKKFIWVVRKGKGEEEEEEQNWLPEGYEERMEGTGLIIRGWAPQVLILDHPSVGGFVTHCGWNSTLEGVAAGVPMVTWPVGAEQFYNEKLVTEVLKTGVGVGVQKWAPGVGDFIESEAVEKAIRRIMEKEGEEMRNRAIELGKKAKWAVGEEGSSYSNLDALIEELKSLAF
- conversion of fed cannabinoid to cannabinoid glycoside in vivo ([3]; E. coli, 250 μM CBN fed, to OB23): 100%

B3: Sr76G1: glycosyl transferase isolated from S. rebaudiana, SEQ ID NO: 123, 124, described in prior art (protein)
chain: MDQMAKIDEKKPHVVFIPFPAQSHIKCMLKLARILHQKGLYITFINTDTNHERLVASGGTQWLENAPGFWFKTVPDGFGSAKDDGVKPTDALRELMDYLKTNFFDLFLDLVLKLEVPATCIICDGCMTFANTIRAAEKLNIPVILFWTMAACGFMAFYQAKVLKEKEIVPVKDETYLTNGYLDMEIDWIPGMKRIRLRDLPEFILATKQNYFAFEFLFETAQLADKVSHMIIHTFEELEASLVSEIKSIFPNVYTIGPLQLLLNKITQKETNNDSYSLWKEEPECVEWLNSKEPNSVVYVNFGSLAVMSLQDLVEFGWGLVNSNHYFLWIIRANLIDGKPAVMPQELKEAMNEKGFVGSWCSQEEVLNHPAVGGFLTHCGWGSIIESLSAGVPMLGWPSIGDQRANCRQMCKEWEVGMEIGKNVKRDEVEKLVRMLMEGLEGERMRKKALEWKKSATLATCCNGSSSLDVEKLANEIKKLSRN
- glycosyltransferase activity using cannabinoid aglycones as substrate ([1]; any cannabinoid aglycone): no glycosyltransferase activity was detected
- glycosyl transferase activity in vivo ([3]; E. coli strain EC-55): lack of activity

B4: Si94D: glycosyl transferase active on cannabinoid glycosides, SEQ ID NO: 145, 146 (protein)
chain: MDTRKRSIRILMFPWLAHGHISAFLELAKSLAKRNFVIYICSSQVNLNSISKNMSSKDSISVKLVELHIPTTILPPPYHTTNGLPPHLMSTLKRALDSARPAFSTLLQTLKPDLVLYDFLQSWASEEAESQNIPAMVFLSTGAAAISFIMYHWFETRPEEYPFPAIYFREHEYDNFCRFKSSDSGTSDQLRVSDCVKRSHDLVLIKTFRELEGQYVDFLSDLTRKRFVPVGPLVQEVGCDMENEGNDIIEWLDGKDRRSTVFSSFGSEYFLSANEIEEIAYGLELSGLNFIWVVRFPHGDEKIKIEEKLPEGFLERVEGRGLVVEGWAQQRRILSHPSVGGFLSHCGWSSVMEGVYSGVPIIAVPMHLDQPFNARLVEAVGFGEEVVRSRQGNLDRGEVARVVKKLVMGKSGEGLRRRVEELSEKMREKGEEEIDSLVEELVTVVRRRERSNLKSENSMKKLNVMMMENREGMLSENA
- efficiency of 1-6 glucose-glucose linkage (gentiobioside) formation ([2]; combined with Pt88G, CBD and UDP-glucose as substrates): 100%
